Assay results as given in patent US20220033483A1 (GUAGNDONG FEIPENG BIOLOGICAL, published 2022).
Changes are numbered by the printed parent chain. Values belong to the binder of their own block, whether it stands above or below them.

Target: T1, cTnI quality control product recombinant protein (human, UniProt P19429 1-210, limits assumed)
T1 construct: the assay paragraphs only say cTnI; also called cardiac troponin I; cTnI antigen
Assay: AMC biosensor, antibody on sensor
Description: Operating process: it is equilibrated in Buffer 1 (PBST) for 60 s, the antibody is immobilized in an antibody solution for 300 s, incubated in Buffer 2 (PBST) for 180 s, bound in antigen solution for 420 s, dissociated in the Buffer 2 for 1200 s, 10 mM of GLY solution with pH 1.69 and Buffer 3 are used for sensor regeneration, and data is output.

T1 sequence (P19429 whole entry): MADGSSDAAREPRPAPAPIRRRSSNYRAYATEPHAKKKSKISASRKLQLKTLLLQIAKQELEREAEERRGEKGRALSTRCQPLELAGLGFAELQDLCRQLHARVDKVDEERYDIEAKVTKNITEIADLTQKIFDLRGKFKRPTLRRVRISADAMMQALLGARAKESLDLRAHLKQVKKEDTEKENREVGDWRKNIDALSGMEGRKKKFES

B1: Mutation 1-53 (antibody, V domains shown)
VH: QVQLQQSGTELAKPGASVKFSCKASGYTFSSYWMYWIKQRPGQGLEWIGYINPSTGHTDYNQRFKDKATLTADKSSSTAYMQLNSLTSEDSAVYYCARKYYGPFGMDYWGQGTSVTVSS
VL: EIFLTQSPAIMSASPGEKVTMTCSASTTVSYVHWYQQKSGTSPKRWIYDTSKLASGIPVRFSGSGSGTSYSLTISSMEAEDAATYYCQQWSTNPYTFGGGTKLEIKR
Kd: 8 nM | koff: 0.0004 s⁻¹ | kon: 50000 M⁻¹ s⁻¹

B2: Mutation 1-48 (antibody, V domains shown)
VH: B1 VH with I51L, K99R, Y101W
VL: B1 VL with T27S, L53I
Kd: 6.6 nM | koff: 8.58e-05 s⁻¹ | kon: 13000 M⁻¹ s⁻¹

B4: Mutation 1-42 (antibody, V domains shown)
VH: B1 VH with S30T, T55S, R63K, K99R, Y101W
VL: B1 VL with T27S, I47L, T92S
Kd: 7.37 nM | koff: 0.000362 s⁻¹ | kon: 49100 M⁻¹ s⁻¹

B6: Mutation 1-43 (antibody, V domains shown)
VH: B1 VH with S30T, R63K, Y101F
VL: B1 VL with T28S, N93Q
Kd: 12.9 nM | koff: 0.000368 s⁻¹ | kon: 28600 M⁻¹ s⁻¹

B7: Mutation 1-27 (antibody, V domains shown)
VH: B1 VH with S30T, I51L, T55S, R63K, Y101F
VL: B1 VL with T28S, T92S
Kd: 9.42 nM | koff: 0.000372 s⁻¹ | kon: 39500 M⁻¹ s⁻¹

B8: Mutation 1-38 (antibody, V domains shown)
VH: B1 VH with S30T, I51L, T55S, R63K
VL: B1 VL with T27S, I47L, T92S
Kd: 7.3 nM | koff: 0.000223 s⁻¹ | kon: 30500 M⁻¹ s⁻¹

B9: Mutation 1-31 (antibody, V domains shown)
VH: B1 VH with S30T, S31T, R63K, K99R
VL: B1 VL with T27S, T28S, T92S
Kd: 12.7 nM | koff: 0.000365 s⁻¹ | kon: 24000 M⁻¹ s⁻¹

B10: Mutation 1-14 (antibody, V domains shown)
VH: B1 VH with S30T, I51L, R63K, K99R, Y101W
VL: B1 VL with T27S, I47L, N93Q
Kd: 7.84 nM | koff: 0.000217 s⁻¹ | kon: 27700 M⁻¹ s⁻¹

B12: Mutation 1-13 (antibody, V domains shown)
VH: B1 VH with I51L, T55S, K99R
VL: B1 VL with T27S, T28S, L53I, N93Q
Kd: 4.42 nM | koff: 7.82e-05 s⁻¹ | kon: 17700 M⁻¹ s⁻¹

B14: Mutation 1-19 (antibody, V domains shown)
VH: B1 VH with S30T, I51L, R63K, K99R
VL: B1 VL with T27S, T28S, T92S, N93Q
Kd: 6.54 nM | koff: 7.12e-05 s⁻¹ | kon: 10900 M⁻¹ s⁻¹

B15: Mutation 1-46 (antibody, V domains shown)
VH: B1 VH with S30T, I51L, T55S, R63K, K99R, Y101F
VL: B1 VL with T28S, T92S
Kd: 5.57 nM | koff: 0.000118 s⁻¹ | kon: 21200 M⁻¹ s⁻¹

B17: Mutation 1-37 (antibody, V domains shown)
VH: B1 VH with I51L, Y101F
VL: B1 VL with T28S, N93Q
Kd: 8.01 nM | koff: 0.000268 s⁻¹ | kon: 33400 M⁻¹ s⁻¹

B18: Mutation 1-45 (antibody, V domains shown)
VH: B1 VH with I51L, Y101W
VL: B1 VL with T27S, I47L, T92S, N93Q
Kd: 3.7 nM | koff: 9.65e-05 s⁻¹ | kon: 26100 M⁻¹ s⁻¹

B19: Mutation 1-41 (antibody, V domains shown)
VH: B1 VH with K99R
VL: B1 VL with T28S, L53I, T92S, N93Q
Kd: 3.27 nM | koff: 6.06e-05 s⁻¹ | kon: 18500 M⁻¹ s⁻¹

B25: Mutation 1-30 (antibody, V domains shown)
VH: B1 VH with S30T, I51L, T55S, K99R, Y101F
VL: B1 VL with I47L, T92S
Kd: 7.2 nM | koff: 0.000258 s⁻¹ | kon: 35800 M⁻¹ s⁻¹

B27: Mutation 1-21 (antibody, V domains shown)
VH: B1 VH with I51L, Y101F
VL: B1 VL with T28S, L53I, T92S, N93Q
Kd: 9.92 nM | koff: 0.000262 s⁻¹ | kon: 26100 M⁻¹ s⁻¹

B28: Mutation 1-49 (antibody, V domains shown)
VH: B1 VH with S30T, S31T, I51L, T55S, R63K, Y101F
VL: B1 VL with T28S, I47L, T92S, N93Q
Kd: 5.94 nM | koff: 0.000195 s⁻¹ | kon: 32800 M⁻¹ s⁻¹

B30: WT 1-7 (antibody, V domains shown)
VH: B1 VH with G26D, S30T, S31T, I51L, D59E, R63K, K99R, G105A
VL: B1 VL with T28S, V32A, T50S, Q89N
Kd: 28.6 nM | koff: 0.000795 s⁻¹ | kon: 27800 M⁻¹ s⁻¹

B32: WT 1-8 (antibody, V domains shown)
VH: B1 VH with G26D, S31T, D59E, R63K, K99R, Y101W, G105A
VL: B1 VL with V32A, I47L, T50S, L53I, Q89N, N93Q
Kd: 75.1 nM | koff: 0.00221 s⁻¹ | kon: 29400 M⁻¹ s⁻¹

B33: WT 1-5 (antibody, V domains shown)
VH: B1 VH with G26D, I51L, D59E, R63K, Y101W, G105A
VL: B1 VL with T27S, T28S, V32A, T50S, L53I, Q89N
Kd: 48.6 nM | koff: 0.0017 s⁻¹ | kon: 35000 M⁻¹ s⁻¹

B34: WT 1-6 (antibody, V domains shown)
VH: B1 VH with G26D, S30T, I51L, T55S, D59E, K99R, Y101F, G105A
VL: B1 VL with T27S, V32A, I47L, T50S, Q89N
Kd: 51.5 nM | koff: 0.00131 s⁻¹ | kon: 25500 M⁻¹ s⁻¹

B35: WT 1-2 (antibody, V domains shown)
VH: B1 VH with G26D, S30T, T55S, D59E, K99R, Y101W, G105A
VL: B1 VL with T27S, V32A, I47L, T50S, Q89N, T92S, N93Q
Kd: 28.5 nM | koff: 0.000741 s⁻¹ | kon: 26000 M⁻¹ s⁻¹

B36: WT 1-3 (antibody, V domains shown)
VH: B1 VH with G26D, S30T, S31T, D59E, R63K, Y101F, G105A
VL: B1 VL with T28S, V32A, T50S, Q89N, T92S
Kd: 10.8 nM | koff: 0.000372 s⁻¹ | kon: 34400 M⁻¹ s⁻¹

B37: WT 1-1 (antibody, V domains shown)
VH: B1 VH with G26D, S31T, D59E, R63K, K99R, G105A
VL: B1 VL with T27S, T28S, V32A, T50S, L53I, Q89N
Kd: 68.4 nM | koff: 0.00165 s⁻¹ | kon: 24100 M⁻¹ s⁻¹

Stronger by Kd, values ahead:

Kd: 2.98 nM | koff: 9.97e-05 s⁻¹ | kon: 33500 M⁻¹ s⁻¹
B29: Mutation 1-17 (antibody, V domains shown)
VH: B1 VH with Y101W
VL: B1 VL with T27S, T28S, L53I, T92S, N93Q

Kd: 2.75 nM | koff: 9.53e-05 s⁻¹ | kon: 34700 M⁻¹ s⁻¹
B16: Mutation 1-33 (antibody, V domains shown)
VH: B1 VH with R63K, Y101F
VL: B1 VL with T28S, L53I, T92S

Kd: 2.6 nM | koff: 4.92e-05 s⁻¹ | kon: 18900 M⁻¹ s⁻¹
B20: Mutation 1-35 (antibody, V domains shown)
VH: B1 VH with S30T, S31T, R63K, K99R, Y101W
VL: B1 VL with T27S, T28S, N93Q

Kd: 2.08 nM | koff: 3.31e-05 s⁻¹ | kon: 15900 M⁻¹ s⁻¹
B24: Mutation 1-26 (antibody, V domains shown)
VH: B1 VH with S30T, S31T, I51L, R63K, K99R, Y101W
VL: B1 VL with T27S, I47L, T92S

Kd: 2.07 nM | koff: 6.36e-05 s⁻¹ | kon: 30700 M⁻¹ s⁻¹
B31: Mutation 1-55 (antibody, V domains shown)
VH: B1 VH with S31T, I51L, T55S, R63K
VL: B1 VL
notes: T0002 combination 56 prints L/L

Kd: 1.76 nM | koff: 2.04e-05 s⁻¹ | kon: 11600 M⁻¹ s⁻¹
B21: Mutation 1-23 (antibody, V domains shown)
VH: B1 VH with S30T, Y101W
VL: B1 VL with T27S, T28S, T92S

Kd: 1.63 nM | koff: 7.3e-05 s⁻¹ | kon: 44900 M⁻¹ s⁻¹
B38: Mutation 1-54 (antibody, V domains shown)
VH: B1 VH with I51L, T55S, R63K, K99R, Y101F
VL: B1 VL with I47L, L53I, N93Q

Kd: 1.38 nM | koff: 2.3e-05 s⁻¹ | kon: 16600 M⁻¹ s⁻¹
B11: Mutation 1-20 (antibody, V domains shown)
VH: B1 VH with S31T, I51L, T55S, R63K, K99R, Y101W
VL: B1 VL with T27S, I47L, L53I, T92S, N93Q

Kd: 1.16 nM | koff: 2.1e-05 s⁻¹ | kon: 18100 M⁻¹ s⁻¹
B23: Mutation 1-15 (antibody, V domains shown)
VH: B1 VH with S30T, S31T, I51L, T55S, Y101F
VL: B1 VL with T28S, N93Q
notes: CDR-VL3 cell prints 'TQ', read as T/Q

Kd: 1.09 nM | koff: 1.11e-05 s⁻¹ | kon: 10200 M⁻¹ s⁻¹
B3: Mutation 1-50 (antibody, V domains shown)
VH: B1 VH with S30T, I51L, R63K, K99R, Y101W
VL: B1 VL with T92S

Kd: 1.03 nM | koff: 2.79e-05 s⁻¹ | kon: 27000 M⁻¹ s⁻¹
B13: Mutation 1-39 (antibody, V domains shown)
VH: B1 VH with S30T, S31T, I51L, R63K, Y101W
VL: B1 VL with T28S, N93Q

Kd: 1.01 nM | koff: 1.38e-05 s⁻¹ | kon: 13600 M⁻¹ s⁻¹
B22: Mutation 1-52 (antibody, V domains shown)
VH: B1 VH with S30T, S31T, K99R, Y101W
VL: B1 VL with T28S, L53I, T92S

Kd: 0.96 nM | koff: 1.52e-05 s⁻¹ | kon: 15800 M⁻¹ s⁻¹
B26: Mutation 1-29 (antibody, V domains shown)
VH: B1 VH with T55S, R63K, Y101W
VL: B1 VL with T27S, T28S, L53I, T92S

Kd: 0.81 nM | koff: 2.15e-05 s⁻¹ | kon: 26500 M⁻¹ s⁻¹
B5: Mutation 1-51 (antibody, V domains shown)
VH: B1 VH with S30T, S31T, K99R
VL: B1 VL with T28S, L53I, T92S, N93Q
